The source of these data is patent US9296810 (Novartis, dated 2016).

Experiment [1] deals with T1, Human Serum Albumin (HSA) (human, UniProt P02768 25-609). As to the kind of experiment: yeast display selection.
Experiment [2] has as its target T1, Human Serum Albumin (HSA). The experiment can be described thus: yeast display selection and ELISA screen of the HSA library. In a few lines: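 Single clones from the HSA library were expressed in E. coli overnight at 37 °C in OvernightExpress medium in 96 deep-well plates, freeze-thawed, lysed with lysozyme/EDTA then DNaseI, and cleared. Wells coated overnight at 4 °C with 1.0 µg/mL HSA and blocked with casein received 50 µL lysate for 1 hour, then were washed. Binding was detected with HRP anti-His-tag antibody and TMB substrate, read as optical density at 450 nm per clone extract.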
On the technique in general: ELISA stands for enzyme-linked immunosorbent assay.

The target in experiment [3] is T1, Human Serum Albumin (HSA). The experiment can be described thus: sandwich ELISA. As for the experimental part:
(§1) The binding characteristic of the multispecific and bispecific binders from Examples 6 and 7 were assessed as follows. […] Aliquots of cleared lysate of wild-type Fn10 (lane1), clone 87 (multispecific) (lane2), clone 89 (bispecific) (lane3) and PBS were added to the wells and incubated for 1 hour at room-temperature. These were run at different concentrations 1, 2 and 3. After washing 5 times with PBS/0.05% Tween, the wells were incubated with 1 µg/ml HSA in PBS. Detection was performed with HRP conjugated chicken anti-human HSA antibody (Abcam). The ELISA was developed with a […] substrate and the OD-values measured at 450 nm.

In experiment [4] the target is T1, Human Serum Albumin (HSA). As to the kind of experiment: sandwich ELISA: VEGFR2-Fc immobilized, cleared lysate, then HSA, anti-HSA-HRP detection. As for the experimental part: as §1

Residue numbers refer to the chain shown, from its start.

T1 sequence (P02768 25-609 limits assumed): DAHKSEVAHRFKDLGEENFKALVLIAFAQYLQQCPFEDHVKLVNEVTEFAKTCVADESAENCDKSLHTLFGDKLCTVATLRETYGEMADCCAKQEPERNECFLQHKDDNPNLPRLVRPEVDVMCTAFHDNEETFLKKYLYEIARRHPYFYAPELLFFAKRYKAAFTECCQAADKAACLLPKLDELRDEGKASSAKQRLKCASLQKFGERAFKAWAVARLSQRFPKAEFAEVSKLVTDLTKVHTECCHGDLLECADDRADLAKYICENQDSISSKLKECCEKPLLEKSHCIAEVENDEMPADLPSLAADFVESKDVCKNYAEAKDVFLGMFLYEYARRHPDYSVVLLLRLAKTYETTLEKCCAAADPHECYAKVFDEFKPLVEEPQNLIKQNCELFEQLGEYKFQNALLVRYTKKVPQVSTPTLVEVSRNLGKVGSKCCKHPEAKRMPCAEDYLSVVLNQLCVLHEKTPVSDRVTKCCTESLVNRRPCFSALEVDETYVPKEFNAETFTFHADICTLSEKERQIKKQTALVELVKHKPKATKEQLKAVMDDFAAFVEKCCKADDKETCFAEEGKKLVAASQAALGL

B1: SEQ ID NO 27 (designed binder)
chain: VSDVPRDLEVVAATPTSLLISWDAPAVTVRYYRITYGLTKRKSLISEFTVPGSKSTATIIGLKAGKDYTITVYAVTGRGDSPASSKPISINYKTEN
B1: the binding result in experiment [1] was “binds”.

B2: SEQ ID NO 38 (designed binder)
chain: VSDVPRDLEVVAATPTSLLISWDAPAVTVRYYRITYGKSSHNSAAKEFTVPGSKSTATITRLKSGTDYTITVYAVTGRGDSPASSKPISINYKPEY
Consider B2, for which the binding result in experiment [1] is on record as “binds”.

B3: SEQ ID NO 8 (designed binder)
chain: VSDVPRDLEVVAATPTSLLISWDAPAVTVRYYRITYGRTDAKSTRKEFTVPGSKSTATIGELKRGRDYTITVYAVTGRGDSPASSKPISINYRPEK
notes: used to build clone 87 and clone 89
Consider B3, for which the binding result in experiment [2] was “binds”.

B4: SEQ ID NO 14 (designed binder)
chain: VSDVPRDLEVVAATPTSLLISWDAPAVTVRYYRITYGVLSSTKHLKEFTVPGSKSTATISGLKLGRDYTITVYAVTGRGDSPASSKPISINYRMES
On to B4, for which the binding result in experiment [1] is “binds”.

B5: SEQ ID NO 32 (designed binder)
chain: B4 chain with V38M, L39I, S41G, T42D, H44R, L45R, K46R, S60D, G61R, M94L
For the molecule B5, the binding result in experiment [1] was “binds”.

B6: SEQ ID NO 23 (designed binder)
chain: B4 chain with L39M, S40G, S41D, H44K, L45V, S60E, G61R, L62I, M94K, S96H
With B6, the binding result in experiment [1] is given as “binds”.

B7: SEQ ID NO 41 (designed binder)
chain: VSNIPKDLEVVAATPTSLLISWDAPAVTVRYYRITYGQTMNGQSNVEFTVPGSKSTATISPSKLGLDYTITVYAVTGRGDSPASSKPISINYLSET
B7: the binding result in experiment [1] is “binds”.

B8: SEQ ID NO 18 (designed binder)
chain: VSDVPRDLEVVAATPTSLLISWDAPAVTVRYYRITYGHTAKTRHHHEFTVPGSKSTATICKSRRGSDYTITVYAVTGRGDSPASSKPISINYQAET
Take B8: the binding result in experiment [1] is “binds”.

B9: SEQ ID NO 28 (designed binder)
chain: VSDVPRDLEVVAATPTSLLISWDAPAVTVRYYRITYGKVKAKAPLVEFTVPGSKSTATISSLKTGKDYTITVYAVTGRGDSPASSKPISINYRYEG
Take B9: in experiment [1], the binding result was “binds”.

B10: SEQ ID NO 39 (designed binder)
chain: VSDVPRDLEVVAATPTSLLISWDAPAVTVRYYRITYGKKHKHTTVREFTVPGSKSTATIAGKSLGGDYTITVYAVTGRGDSPASSKPISINYTSET
Take B10: in experiment [1], the binding result is given as “binds”.

B11: SEQ ID NO 17 (designed binder)
chain: VSDVPRDLEVVAATPTSLLISWDAPAVTVRYYRITYGQRVGKTKVHEFTVPGSKSTATIRGLKRGKDYTITVYAVTGRGDSPASSKPISINYFPET
B11: the binding result in experiment [1] was “binds”.

B12: SEQ ID NO 16 (designed binder)
chain: VSDVPRDLEVVAATPTSLLISWDAPAVTVRYYRITYGITGKEKSFVEFTVPGSKSTATIRDVKKGKDYTITVYAVTGRGDSPASSKPISINYRAET
Turning to B12, the binding result in experiment [1] is reported as “binds”.

B13: SEQ ID NO 31 (designed binder)
chain: VSDVPRDLEVVAATPTSLLISWDAPAVTVRYYRITYGEVHGHHTAHEFTVPGSKSTATIVRLKRGKDYTITVYAVTGRGDSPASSKPISINYCPER
B13: in experiment [1], the binding result was “binds”.

B14: clone 87 (multispecific Fn3-based binding molecule; VEGFR2 top side binder fused to bottom side sequence 8 from FIG. 7 with GS linker) (designed binder)
chain: MGVSDVPRDLEVVAATPTSLLISWRHPHFPTRYYRITYGETGGNSPVQEFTVPLQPPLATISGLKPGVDYTITVYAVTKERNGRELFTPISINYRTGGGGSGGGGSVSDVPRDLEVVAATPTSLLISWDAPAVTVRYYRITYGRTDAKSTRKEFTVPGSKSTATIGELKRGRDYTITVYAVTGRGDSPASSKPISINYRPEKENLYFQGHHHHHH
notes: ELISA used cleared lysate, Biacore soluble protein; also called Fibronectin clone 87 (multispecific)
Take B14: the binding result in experiment [3] is listed as “binds”.

B15: SEQ ID NO 26 (designed binder)
chain: VSDVPRDLEVVAATPTSLLISWDAPAVTVRYYRITYGKTARKYHMQEFTVPGSKSTATISGIKRGTDYTITVYAVTGRGDSPASSKPISINYNSEH
Consider B15, for which the binding result in experiment [1] was “binds”.

B16: SEQ ID NO 24 (designed binder)
chain: VSDVPRDLEVVAATPTSLLISWDAPAVTVRYYRITYGEASKNHRQHEFTVPGSKSTATISRIKRGTDYTITVYAVTGRGDSPASSKPISINYSPES
As to B16, the binding result in experiment [1] is recorded as “binds”.

B17: SEQ ID NO 13 (designed binder)
chain: VSDVPRDLEVVAATPTSLLISWDAPAVTVRYYRITYGTSVDDRKLREFTVPGSKSTATISRLKRGRDYTITVYAVTGRGDSPASSKPISINYRAEN
As for B17, the binding result in experiment [1] is “binds”.

B18: SEQ ID NO 15 (designed binder)
chain: B17 chain with T38S, S39R, V40A, D41S, D42H, R46T, R61G, R64T, A94T, N96H
B18: the binding result in experiment [1] was “binds”.

B19: SEQ ID NO 33 (designed binder)
chain: VSDVPRDLEVVAATPTSLLISWDAPAVTVRYYRITYGVMHDKHPKKEFTVPGSKSTATISGLKRGRDYTITVYAVTGRGDSPASSKPISINYKSEA
Regarding B19, in experiment [1], the binding result was “binds”.

B20: SEQ ID NO 35 (designed binder)
chain: VSDVPRDLEVVAATPTSLLISWDAPAVTVRYYRITYGKNGRHNLDHEFTVPGSKSTATISGLKRGVDYTITVYAVTGRGDSPASSKPISINYHNEN
Turning to B20, the binding result in experiment [1] is “binds”.

B21: SEQ ID NO 21 (designed binder)
chain: VSDVPRDLEVVAATPTSLLISWDAPAVTVRYYRITYGDSRHHPRAHEFTVPGSKSTATITGCKRGHDYTITVYAVTGRGDSPASSKPISINYRYEH
As for B21, the binding result in experiment [1] was “binds”.

B22: clone 89 (bispecific Fn3-based binding molecule; VEGFR2/Bottom side SEQ ID NO: 8 merged molecule) (designed binder)
chain: MGVSDVPRDLEVVAATPTSLLISWRHPHFPTRYYRITYGRTDAKSTRKEFTVPLQPPLATIGELKRGRDYTITVYAVTKERNGRELFTPISINYRPEKENLYFQGHHHHHH
notes: the entry ends in ENLYFQG-HHHHHH; also called VEGFR2-HAS; single bispecific fibronectin molecule
For the molecule B22, the binding result in experiment [4] was “binds”.

B23: SEQ ID NO 19 (designed binder)
chain: VSDVPRDLEVVAATPTSLLISWDAPAVTVRYYRITYGYGAANRRAHEFTVPGSKSTATISGLKRGRDYTITVYAVTGRGDSPASSKPISINYRHEL
For B23, the binding result in experiment [1] is “binds”.

B24: SEQ ID NO 29 (designed binder)
chain: B23 chain with Y38D, G39R, A41K, R43T, A45I, H46K, H94L, L96G
Take B24: the binding result in experiment [1] was “binds”.

B25: SEQ ID NO 40 (designed binder)
chain: VSDVPRDLEVVAATPTSLLISWDAPAVTVRYYRITYGRPGHNSKVHEFTVPGSKSTATIDGAKKGHDYTITVYAVTGRGDSPASSKPISINYIMEH
For B25, the binding result in experiment [1] is given as “binds”.

B26: SEQ ID NO 22 (designed binder)
chain: VSDVPRDLEVVAATPTSLLISWDAPAVTVRYYRITYGKSHGHRQKHEFTVPGSKSTATISDYRQGGDYTITVYAVTGRGDSPASSKPISINYKGEL
Consider B26, for which the binding result in experiment [1] is on record as “binds”.

B27: SEQ ID NO 36 (designed binder)
chain: VSDVPRDLEVVAATPTSLLISWDAPAVTVRYYRITYGNIVAANALPEFTVPGSKSTATITGLMSGIDYTITVYAVTGRGDSPASSKPISINYSTEY
As to B27, the binding result in experiment [1] is listed as “binds”.

B28: SEQ ID NO 37 (designed binder)
chain: VSDVPRDLEVVAATPTSLLISWDAPAVTVRYYRITYGKLSQPTKRREFTVPGSKSTATISRLKPGLDYTITVYAVTGRGDSPASSKPISINYHYEL
Consider B28, for which, in experiment [1], the binding result is “binds”.

B29: SEQ ID NO 34 (designed binder)
chain: VSDVPRDLEVVAATPTSLLITWDAPAVTVRYYRITYGVAGKTKPRSEFTVPGSKSTATIPHLKLGHDYTITVYAVTGRGDSPASSKPISINYRAEH
For the molecule B29, in experiment [1], the binding result is “binds”.

B30: SEQ ID NO 25 (designed binder)
chain: VSDVPRDLEVVAATPTSLLISWDAPAVTVRYYRITYGEKPRKYRSSEFTVPGSKSTATIRHSKHGKDYTITVYAVTGRGDSPASSKPISINYMREI
Regarding B30, the binding result in experiment [1] is given as “binds”.

B31: SEQ ID NO 30 (designed binder)
chain: VSDVPRDLEVVAATPTSLLISWDAPAVTVRYYRITYGIPAKKHHTHEFTVPGSKSTATITGLKSGVDYTITVYAVTGRGDSPASSKPISINYRTET
Take B31: the binding result in experiment [1] is “binds”.
